Data taken from patent publication US10005846 (LIFEARC, dated 2018).
Positions count from the first letter of the chain named.

Experiments:
[1] = biological target: T1, human transglutaminase type 2 (TG2) (human, UniProt P21980 1-687); experiment: ELISA on immobilised human TG2; r2 0.9682; EC50 95% confidence range 0.03611 to 0.06410 [continued), panel B]
T1 construct: Recombinant full-length human TG2 (Zedira; cat; T002 in the Biacore work); Also used here for the endogenous TG2 of HepG2 lysate and HK-2 cells; also called hTG2; rhTG2
T1 sequence: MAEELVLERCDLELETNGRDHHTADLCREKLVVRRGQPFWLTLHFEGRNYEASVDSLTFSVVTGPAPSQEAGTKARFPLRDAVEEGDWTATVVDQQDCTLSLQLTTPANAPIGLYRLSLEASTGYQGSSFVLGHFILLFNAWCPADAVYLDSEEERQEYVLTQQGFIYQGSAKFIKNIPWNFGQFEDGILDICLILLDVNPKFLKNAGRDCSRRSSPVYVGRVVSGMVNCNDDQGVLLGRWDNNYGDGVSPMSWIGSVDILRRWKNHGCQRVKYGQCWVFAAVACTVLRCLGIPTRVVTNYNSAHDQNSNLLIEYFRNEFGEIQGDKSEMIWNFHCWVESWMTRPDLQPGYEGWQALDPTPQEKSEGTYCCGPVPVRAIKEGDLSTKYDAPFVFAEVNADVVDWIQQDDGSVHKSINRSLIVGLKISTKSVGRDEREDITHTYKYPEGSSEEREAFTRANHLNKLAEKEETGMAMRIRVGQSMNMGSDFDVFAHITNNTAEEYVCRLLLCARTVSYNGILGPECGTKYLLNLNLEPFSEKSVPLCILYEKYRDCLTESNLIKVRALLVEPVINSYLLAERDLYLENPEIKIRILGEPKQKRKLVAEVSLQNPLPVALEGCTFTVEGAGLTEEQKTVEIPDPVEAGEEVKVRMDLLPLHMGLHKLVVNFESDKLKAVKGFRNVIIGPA
Method: (§1) Antibody binding to human and cynomolgus monkey TG2 was determined in an ELISA assay. Clear polystyrene "Maxisorp" 96-well plates (Nunc) were coated with 50 ng purified human or cynomogulus monkey TG2 in 50 µl 0.05 M carbonate-bicarbonate buffer pH 9.6 at 4° C. overnight. Control wells were coated with 50 µl 100 µg/ml bovine serum albumin (BSA). Plates were washed 3× with 300 µl phosphate-buffered saline pH7.4 (PBS) containing 0.1% Tween 20 (PBST) and blocked with 300 µl 3% w/v Marvel skimmed milk in PBS for 1 hour at room temperature. After 3× wash with PBST, 50 µl protein-A purified chimeric or humanised anti-TG2 antibodies or human IgG1 kappa […] control antibody or CUB7402 (Abcam) were serially diluted 4-fold from a top concentration of 50 nM in PBS, and added to the plate in duplicate. […] After 3× washes with PBST, the plates were developed with 50 µl TMB substrate (Sigma) for 5 min at room temperature before stopping the reaction with 25 µl 0.5M H2SO4 and reading absorbance at 450 nm in a microtiter plate reader (BioTek EL808). Dose response curves were analysed and EC50 values and other statistical parameters determined using a 4-parameter logistical fit of the data (GraphPad Prism).

cynomolgus monkey TG2 = biological target: T2, cynomolgus monkey TG2 (cynomolgus monkey, UniProt A0A2K5VXI8 1-687); experiment: ELISA on immobilised cynomolgus monkey TG2; r2 0.9986; EC50 95% confidence range 0.6682 to 0.8162 [panel A]
T2 construct: Bought recombinant protein; also called cynomogulus monkey TG2; cyano TG2
T2 sequence: T1 sequence with E4D, Q157R, N177S, H413S, I421T, Y528H, V542I
Method: as §1

[2] = biological target: T1, human transglutaminase type 2 (TG2); experiment: ELISA on immobilised human TG2; r2 0.9968; EC50 95% confidence range 0.2890 to 0.4002 [panel A]
Method: as §1

[3] = biological target: T1, human transglutaminase type 2 (TG2); experiment: cell-based or functional assay
[4] = biological target: T1, human transglutaminase type 2 (TG2); experiment: ELISA on immobilised human TG2; r2 0.998; EC50 95% confidence range 0.1860 to 0.2368 [panel A]
Method: as §1

B1: cBB001 chimeric antibody (murine BB7 variable regions) (antibody, human IgG1, V domains shown)
VH: AVQLVESGGGLVKPGGSLKLSCAASGIIFSSSAMSWVRQTPEKRLEWVATISSGGRSTYYPDSVKGRFTVSRDSAKNTLYLQMDSLRSEDTAIYYCAKLISPYWGQGTTLTVSS
VL: AIKMTQSPSSMYASLGERVIITCKASQDINSYLTWFQQKPGKSPKTLIYLTNRLMDGVPSRFSGSGSGQEFLLTISGLEHEDMGIYYCLQYVDFPYTFGGGTKLEIK
notes: also called chimeric BB7
B1 gave an EC50 [1] of 48.1 pM.

B2: cDH001 chimeric antibody (murine DH2 variable regions) (antibody, human IgG1, V domains shown)
VH: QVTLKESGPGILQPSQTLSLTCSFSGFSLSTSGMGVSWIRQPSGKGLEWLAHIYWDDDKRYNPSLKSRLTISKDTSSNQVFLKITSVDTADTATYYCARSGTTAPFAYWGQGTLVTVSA
VL: QIVLTQSPAIMSASPGEKVTMTCSASSSVSYMYWYQQKPGSSPRLLIYDTSNLASGVPVRFSGSGSGTSYSLTISRMEAEDAATFYCQQWSSSPLTFGAGTKLELK
With B2 the EC50 (cynomolgus monkey TG2) was 738 pM and the EC50 [2] was 340 pM.

B3: cDD9001 chimeric antibody (murine DD9 variable regions) (antibody, human IgG1, V domains shown)
VH: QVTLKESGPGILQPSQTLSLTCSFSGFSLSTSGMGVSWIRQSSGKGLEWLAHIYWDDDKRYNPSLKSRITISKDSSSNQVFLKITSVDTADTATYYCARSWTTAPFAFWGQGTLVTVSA
VL: B2 VL with S30D, E78G, F85Y, S91N
With B3 the “IC50 of enzymatic inhibition, dansylated lysine incorporation into N,N-dimethylated casein [continued), panel D]” value [3] was 172000 pM and the EC50 [4] was 210 pM.
